Results published in publication PMC8015000, “FYN and ABL Regulate the Interaction Networks of the DCBLD Receptor Family” (Molecular & Cellular Proteomics : MCP, 2020).
One block for each binder: values may come before it.

Target: T1, DCBLD2-FLAG-MYC (full-length human Discoidin, CUB, and LCCL domain-containing protein 2) (human, UniProt Q96PD2 67-775)
T1 construct: DCBLD2, human, full-length cDNA in pCMV6-Entry (OriGene RC224483); Expressed alone or together with ABL-FLAG or FYN; also called ESDN; source: HEK 293, transfected, in lysate; immunoprecipitated (alpha-FLAG or alpha-MYC) for the zebrafish extract experiment and the far-Western; not shown: FLAG, C-terminal, kept; MYC, C-terminal, kept
T1 sequence (looked up): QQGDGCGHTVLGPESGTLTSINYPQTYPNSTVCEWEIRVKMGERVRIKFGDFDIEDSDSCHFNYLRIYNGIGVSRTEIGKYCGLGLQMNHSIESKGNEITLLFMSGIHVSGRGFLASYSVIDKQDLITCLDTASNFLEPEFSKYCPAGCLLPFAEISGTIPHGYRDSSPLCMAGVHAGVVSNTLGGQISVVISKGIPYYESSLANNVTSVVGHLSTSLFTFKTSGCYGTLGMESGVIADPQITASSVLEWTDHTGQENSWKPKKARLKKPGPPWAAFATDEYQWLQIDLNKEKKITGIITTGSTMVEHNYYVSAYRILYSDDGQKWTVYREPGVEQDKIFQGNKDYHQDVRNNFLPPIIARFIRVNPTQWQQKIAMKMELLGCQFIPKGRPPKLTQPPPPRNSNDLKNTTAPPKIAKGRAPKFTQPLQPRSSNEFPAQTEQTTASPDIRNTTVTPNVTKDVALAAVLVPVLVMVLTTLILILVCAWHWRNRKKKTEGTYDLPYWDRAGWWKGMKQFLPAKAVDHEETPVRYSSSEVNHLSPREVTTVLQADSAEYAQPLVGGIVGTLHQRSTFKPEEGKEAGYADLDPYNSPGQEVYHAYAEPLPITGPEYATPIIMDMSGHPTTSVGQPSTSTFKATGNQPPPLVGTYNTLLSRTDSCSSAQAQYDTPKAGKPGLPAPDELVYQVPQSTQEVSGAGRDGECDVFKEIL
Experiment: pull-down; GST-14-3-3 fusions on GSH beads rocked at 4 C with lysates of 293 cells expressing DCBLD2-FLAG-MYC alone or with ABL-FLAG; washed 3x with BCLB; Western blotting (alpha-MYC for DCBLD2)
Conditions: one partner purified

- binding result: binds
B1: GST-14-3-3ζ (natural protein, UniProt P63104 1-245, looked up)
chain: MDKNELVQKAKLAEQAERYDDMAACMKSVTEQGAELSNEERNLLSVAYKNVVGARRSSWRVVSSIEQKTEGAEKKQQMAREYREKIETELRDICNDVLSLLEKFLIPNASQAESKVFYLKMKGDYYRYLAEVAAGDDKKGIVDQSQQAYQEAFEISKKEMQPTHPIRLGLALNFSVFYYEILNSPEKACSLAKTAFDEAIAELDTLSEESYKDSTLIMQLLRDNLTLWTSDTQGDEAEAGEGGEN
notes: 14-3-3ζ, pGEX plasmid, gift of M. Yaffe; also called fusion of GSH S-transferase with 14-3-3ζ; source: E. coli, purified on glutathione resin (kept on the beads for pull-down; eluted with GSH and dialyzed for far-Western)

- binding result: binds
B2: GST-14-3-3ε (natural protein, UniProt P62258 1-255, looked up)
chain: MDDREDLVYQAKLAEQAERYDEMVESMKKVAGMDVELTVEERNLLSVAYKNVIGARRASWRIISSIEQKEENKGGEDKLKMIREYRQMVETELKLICCDILDVLDKHLIPAANTGESKVFYYKMKGDYHRYLAEFATGNDRKEAAENSLVAYKAASDIAMTELPPTHPIRLGLALNFSVFYYEILNSPDRACRLAKAAFDDAIAELDTLSEESYKDSTLIMQLLRDNLTLWTSDMQGDGEEQNKEALQDVEDENQ
notes: 14-3-3ε, pGEX plasmid, gift of M. Yaffe; also called fusion of GSH S-transferase with 14-3-3ε; source: E. coli, purified on glutathione resin (kept on the beads for pull-down; eluted with GSH and dialyzed for far-Western)

- binding result: binds
B3: GST-14-3-3σ (natural protein, UniProt P31947 1-248, looked up)
chain: MERASLIQKAKLAEQAERYEDMAAFMKGAVEKGEELSCEERNLLSVAYKNVVGGQRAAWRVLSSIEQKSNEEGSEEKGPEVREYREKVETELQGVCDTVLGLLDSHLIKEAGDAESRVFYLKMKGDYYRYLAEVATGDDKKRIIDSARSAYQEAMDISKKEMPPTNPIRLGLALNFSVFHYEIANSPEEAISLAKTTFDEAMADLHTLSEDSYKDSTLIMQLLRDNLTLWTADNAGEEGGEAPQEPQS
notes: 14-3-3σ, pGEX plasmid, gift of M. Yaffe; also called fusion of GSH S-transferase with 14-3-3σ; source: E. coli, purified on glutathione resin (kept on the beads for pull-down; eluted with GSH and dialyzed for far-Western)

- binding result: binds
B4: GST-14-3-3β (natural protein, UniProt P31946 1-246, looked up)
chain: MTMDKSELVQKAKLAEQAERYDDMAAAMKAVTEQGHELSNEERNLLSVAYKNVVGARRSSWRVISSIEQKTERNEKKQQMGKEYREKIEAELQDICNDVLELLDKYLIPNATQPESKVFYLKMKGDYFRYLSEVASGDNKQTTVSNSQQAYQEAFEISKKEMQPTHPIRLGLALNFSVFYYEILNSPEKACSLAKTAFDEAIAELDTLNEESYKDSTLIMQLLRDNLTLWTSENQGDEGDAGEGEN
notes: 14-3-3β, pGEX plasmid, gift of M. Yaffe; also called fusion of GSH S-transferase with 14-3-3β; source: E. coli, purified on glutathione resin (kept on the beads for pull-down; eluted with GSH and dialyzed for far-Western)
